Assay results published in the supplement of paper PMC9170038.

Test system: MS2 coat protein
Experiment: apparent KD of MS2 coat protein; designed switch direction (-1 OFF switch, 1 ON switch): 1; higher = weaker reporter binding
How it was run: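 Transcription of designed RNA switches on Illumina chips was done by stalled E. coli RNA polymerase. SNAP-549-labelled MS2 coat protein was then titrated in doubling steps from 0.7 or 1.5 nM to 3 µM, with steps of 0.8–1.5 h at the lowest and 10–20 min at the highest concentration. The per-design median over clusters of curve-fitted normalised fluorescence is reported as apparent KD.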

[1] = input ligand: microRNA oligo, concentration not stated
[2] = Eterna round: R95, input ligand: FMN 200 uM
[3] = Eterna round: R95, input ligand: microRNA oligo, concentration not stated
[4] = Eterna round: R95, input ligand: none

Row | Sequence | apparent KD of MS2 coat protein (input ligand: FMN 200 uM) [nM] | apparent KD of MS2 coat protein [1] [nM] | apparent KD of MS2 coat protein (input ligand: none) [nM] | apparent KD of MS2 coat protein [2] [nM] | apparent KD of MS2 coat protein [3] [nM] | apparent KD of MS2 coat protein [4] [nM]
1 | CCAAUGUACAAUUUAGAUCUACAUGAGGAUCACCCAUGUACAGAGGAUAUCAGCUCGAAUAGAGCUGAGAAGGCUGAAUUAAUU [SSNG3/3-A1] (Eterna round: R96, puzzle: Same State NG 3) | 88.2 | 153 | 226 |  |  | 
2 | AGAGUGUAUCCACAGGAUAUGCGAGCUGACACAUGAGGAUCACCCAUGUAGUCCUAAAGGGCCAAGCAGAAGGGUGGUAAAGCUC [Oneson] (puzzle: Same State 2) |  |  |  | 17.5 | 28.9 | 33.9
3 | ACAUGAGAGAUAGGAUAUUGUGUACCUACAUGUGACAUGAGGAUCACCCAUGUGGUAAGUAUGAGCAAGAAGGAUCAGAUAUGU [Equivalance 51 - Jieux - Same State NG 2] (Eterna round: R96, puzzle: Same State NG 2) | 23.2 | 35.9 | 69.5 |  |  | 
4 | AUCCGGAAGCGAGGAUAUGCAGAGGAUCACCCUGCAGAAGGCGCGAUCGCGAGGAUAUGCAGAGGAUCACCCUGCAGAAGGCGC [pwkr ssNG DX.31] (Eterna round: R96, puzzle: Same State NG 1) | 15.5 | 20.3 | 25.1 |  |  | 
5 | GGAAUAUGAUGUUACAUGAGGAUCACCCAUGUAGUGACAACUAAGGAUAUCUGAAAGGAAGGAGAGGAGAAGGUAGGAUCAUAA [AK SSNG3-V2-14] (Eterna round: R96, puzzle: Same State NG 3) | 20 | 24.6 | 33.3 |  |  | 
6 | GAGCCAGUCCGAGGAUAUUCAUAUUAACAUGAGGAUCACCCAUGUAGGCUCAGAAAGGAGCCUUGGGAGAAGGCGGACUGGCUC [Xeonanisa<<2] (Eterna round: R96, puzzle: Same State NG 2) | 14.9 | 114 | 251 |  |  | 
7 | UUGAAGAAUUAAGGAUAUUGAAUACAUAUGUUUAACAUGAGGAUCACCCAUGUGGGUUGCGGUGUCGAGAAGGUAAAUUACUAG [JL SSNG2 1.50] (Eterna round: R96, puzzle: Same State NG 2) | 256 | 177 | 207 |  |  | 
8 | GCUGGAAACCACAUGAGGAUCACCCAUGUUCCGGAAACGGCGCAGGAUAUCUGUCCGAAAAGGUCAGAGAAGGGUGGAACCAGC [Fiskers NG3ss - 81] (Eterna round: R96, puzzle: Same State NG 3) | 232 | 136 | 164 |  |  | 
9 | UGAGCCGGCACUGAGGAUAUUCAUAAUAAAACAUGAGGAUCACCCAUGUAGGCCAGAAGGCCUUGGGAGAAGGCAGGUCGGCUCA [Mat - Same State 2 - Mod of UCT - D71] (Eterna round: R96, puzzle: Same State 2) | 15.7 | 147 | 191 |  |  | 
10 | UGUUGUAUUACAGGAUAUCUAGUAUUUUUAUAUAGAGAAGGGUAUUCACAUGAGGAUCACCCAUGUAUAUACGAGGAAGUUGUG [JMF's solution 51] (Eterna round: R96, puzzle: Same State NG 1) |  | 23 |  |  |  | 
11 | AAUUAUUAACAUGAGGAUCACCCAUGUAUUAUUAUUAUUAUUAACAAGCUUUUUCAUGUUAUUAGCUCGUCUUAUAA [Bojan's Design 2] (puzzle: Sensor for hsa-mir-208a version 2) |  |  |  | 16.5 | 31.7 | 15.4
12 | UGUCCAGCCUGAGCUGGACAAAAGCAUGUACAUGAGGAUCACCCAUGUUCAUGUACAAGCUUUUUGCUCGUCUUAGC [salish99_208a_r3_067] (puzzle: Sensor for hsa-mir-208a) |  |  |  | 624 | 13.6 | 547
13 | AUAAAACAUGAGGAUCACCCAUGUCAACAAAGUCGAGGAUAUGGGCAAAUAAAAUAAGAACCAGAAGGCGUAUAAU [salish99_ss1_r3_034] (puzzle: Same State 1) |  |  |  |  | 341 | 
14 | GCACUCCUAGGAGCUGCGACAUGAGGAUCACCCAUGUAAUCACAGGAUAUGCAAUUCUGAAUUUUGCAGAAGGGUGAUAGGAAA [Zausorbi] (Eterna round: R96, puzzle: Same State NG 3) | 413 | 270 | 263 |  |  | 
15 | CCGAUGUGGGUACAGGAUAUGUGGGCCUCCACAUGAGGAUCACCCAUGUCGGAGGCAAAGCGGCUACAGAAGGGUGCGAGCUCGA [Xeanza] (puzzle: Same State 2) |  |  |  |  | 9.28 | 
16 | GGCUAUCGGCGUACCGAUAGCUGGUAUGUACAUGAGGAUCACCCAUGUCAUGUACAGGCUUGUUGCUCGUCUUAUUG [JL-shm-2.38 JL mod] (puzzle: Sensor for hsa-mir-208a) |  |  |  | 144 | 33 | 165
17 | UUAUAACAUGAGGAUCACCCAUGUCAACAAAGUCGAGGAUAUGGGCAUAGAUUAUAAGAACCAGAAGGCGAAUAUG [Mat - Same State 1 - Mod of UCT - D41] (puzzle: Same State 1) |  |  |  | 140 | 11.3 | 1.69
18 | AGGCUCAGACGAGGAUAUAUGUCUCGAGCUUCGGCUCGAGACAUGAGGAUCACCCAUGUAAUAACAUAGAAGGCGUCUGAGCCA [SSNG2/1-A1] (Eterna round: R96, puzzle: Same State NG 2) | 15.7 | 24.9 | 37 |  |  | 
19 | UAACAGUACAAUUUAGAUCUACAUGAGGAUCACCCAUGUACUGAGGAUAUCAGCUCGUUUAGAGCUGAGAAGGCAGAAGAACUA [SSNG3/11-A3] (Eterna round: R96, puzzle: Same State NG 3) | 39.7 | 154 | 218 |  |  | 
20 | GCAGGACAUGAGGAUCACCCAUGUCUCAAAUAUUGAGGAUAUGGACACGGUAUAUCCGAACCAGAAGGCAACCUGC [SS1 Teenbexe 20] (puzzle: Same State 1) |  |  |  |  | 47.3 | 
21 | UACCGCGCAGAUGCGCAACAUGAGGAUCACCCAUGUGGCACACAGGAUAUCCUGAACAGCUAUUAGGAGAAGGGUGAAGGCCUC [Sotetelequ] (Eterna round: R96, puzzle: Same State NG 3) | 128 | 75.3 | 78.3 |  |  | 
22 | UCUUGGUUUUUGCUCGUUUUUUGUGUUGAACAUGAGGAUCACCCAUGUAUUGUACGAUCCAAUUUAAUAAUGGUCCG [JMF 60] (puzzle: Sensor for hsa-mir-208a) |  |  |  | 42.6 | 33.6 | 50.2
23 | GGUCCAGCCUGAGCUGGACAAAAGCAUGUACAUGAGGAUCACCCAUGUUCAUGUACAAGCUUUUUGCUCGUCUUACG [salish99_208a_r3_086] (puzzle: Sensor for hsa-mir-208a) |  |  |  | 571 | 19.2 | 844
24 | GGAGCCAAGGCAGGAUAUUCAUUAUAAAUUACAUGAGGAUCACCCAUGUUGGCCAGAAGGCCAUGGGAGAAGGGCCAUGGCUCG [Xeonanis - 13 mod25] (Eterna round: R96, puzzle: Same State NG 2) | 39.7 | 280 | 322 |  |  | 
